Assay results taken from patent US20210063414A1 (Dana-Farber, published 2021).

How the values were obtained:
[1] = target: T1, Integrin beta-1 (Itgb1) of MLO-Y4 cells (mouse, UniProt P09055 21-798); assay: DTSSP cross-linking of his-tag ligand on MLO-Y4 cells, his-tag pull-down, TMT quantitative mass spectrometry; ratio to his-tag adipsin control
T1 construct: whole, on cells; Endogenous protein of the mouse osteocyte-like cell line, cross-linked on intact cells; also called β1 integrin; integrin β1
Method: (§1) Cells were homogenized and immunoprecipitated using 6 his-tag agarose after treatment of DTSSP cross-linker. Immunoprecipitated proteins were labeled with TMT and analyzed by mass spectrometer.
(§2) A chemical cross-linker was then added and incubated with cells, and the ligands were re-purified with (presumptive) cellular proteins covalently attached. The cross-links were then reversed and the products were subjected to quantitative Mass Spectrometry (FIG. 2A).

[2] = target: T2, Integrin alpha-V (Itgav) of MLO-Y4 cells (mouse, UniProt P43406 31-1044); assay: DTSSP cross-linking on MLO-Y4 cells, his-tag pull-down, TMT mass spectrometry; ratio to his-tag adipsin control
T2 construct: whole, on cells
T2 sequence (looked up): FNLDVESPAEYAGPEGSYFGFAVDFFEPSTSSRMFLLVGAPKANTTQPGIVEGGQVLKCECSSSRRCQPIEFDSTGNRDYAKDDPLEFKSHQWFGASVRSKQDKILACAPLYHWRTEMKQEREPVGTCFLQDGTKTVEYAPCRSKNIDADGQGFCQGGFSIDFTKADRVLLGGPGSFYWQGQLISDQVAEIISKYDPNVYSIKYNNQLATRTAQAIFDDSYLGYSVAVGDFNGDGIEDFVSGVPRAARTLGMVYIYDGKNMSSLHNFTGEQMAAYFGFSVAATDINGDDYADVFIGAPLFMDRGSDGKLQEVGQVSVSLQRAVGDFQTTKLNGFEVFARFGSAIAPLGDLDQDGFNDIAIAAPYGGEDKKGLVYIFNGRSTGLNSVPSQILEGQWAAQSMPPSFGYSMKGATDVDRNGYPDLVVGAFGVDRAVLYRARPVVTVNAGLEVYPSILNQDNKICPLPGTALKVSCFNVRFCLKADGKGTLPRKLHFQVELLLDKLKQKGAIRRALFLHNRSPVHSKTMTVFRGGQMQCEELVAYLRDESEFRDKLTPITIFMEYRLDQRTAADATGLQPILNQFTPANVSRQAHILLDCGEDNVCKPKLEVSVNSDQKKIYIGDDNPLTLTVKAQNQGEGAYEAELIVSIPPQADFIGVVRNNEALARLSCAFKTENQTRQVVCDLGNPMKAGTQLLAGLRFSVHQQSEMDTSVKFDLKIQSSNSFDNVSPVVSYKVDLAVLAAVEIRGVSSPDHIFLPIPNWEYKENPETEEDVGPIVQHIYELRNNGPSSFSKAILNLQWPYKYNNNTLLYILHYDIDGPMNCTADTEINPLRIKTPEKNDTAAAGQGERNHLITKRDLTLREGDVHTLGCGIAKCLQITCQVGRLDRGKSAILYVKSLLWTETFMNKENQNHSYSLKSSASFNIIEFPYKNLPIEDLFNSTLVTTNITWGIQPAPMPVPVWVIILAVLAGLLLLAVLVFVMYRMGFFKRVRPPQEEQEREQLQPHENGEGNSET
Method: as §1, §2

[3] = target: T3, Integrin beta-5 (Itgb5) of MLO-Y4 cells (mouse, UniProt O70309 24-798); assay: as above
T3 construct: whole, on cells; also called ITB5_MOUSE
T3 sequence (looked up): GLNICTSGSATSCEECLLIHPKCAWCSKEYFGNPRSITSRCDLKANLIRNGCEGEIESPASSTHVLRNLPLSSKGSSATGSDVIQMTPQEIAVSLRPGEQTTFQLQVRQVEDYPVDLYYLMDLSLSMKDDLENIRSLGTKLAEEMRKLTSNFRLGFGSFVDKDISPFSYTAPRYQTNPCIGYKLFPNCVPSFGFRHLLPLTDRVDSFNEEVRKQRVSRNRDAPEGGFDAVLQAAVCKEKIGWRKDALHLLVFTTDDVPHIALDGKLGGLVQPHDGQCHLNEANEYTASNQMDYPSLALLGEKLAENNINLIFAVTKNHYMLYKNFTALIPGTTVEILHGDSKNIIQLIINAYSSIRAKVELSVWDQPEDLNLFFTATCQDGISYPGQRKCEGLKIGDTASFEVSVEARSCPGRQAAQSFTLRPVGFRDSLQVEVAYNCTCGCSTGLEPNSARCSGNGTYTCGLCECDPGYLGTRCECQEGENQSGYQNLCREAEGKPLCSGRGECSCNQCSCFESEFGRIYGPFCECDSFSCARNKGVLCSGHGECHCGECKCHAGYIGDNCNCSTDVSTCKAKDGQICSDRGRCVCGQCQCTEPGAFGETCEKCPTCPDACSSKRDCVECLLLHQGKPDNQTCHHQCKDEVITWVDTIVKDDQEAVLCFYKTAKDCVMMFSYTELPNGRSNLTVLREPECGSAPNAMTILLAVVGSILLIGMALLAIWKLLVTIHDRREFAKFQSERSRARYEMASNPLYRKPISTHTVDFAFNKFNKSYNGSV
Method: as §1, §2

[4] = target: T2, Integrin alpha-V (Itgav) of MLO-Y4 cells; assay: DTSSP cross-linking on MLO-Y4 cells, his-tag pull-down, TMT mass spectrometry; irisin channel
Method: as §1, §2

[5] = target: T1, Integrin beta-1 (Itgb1) of MLO-Y4 cells; assay: as above
Method: as §1, §2

[6] = target: T3, Integrin beta-5 (Itgb5) of MLO-Y4 cells; assay: as above
Method: as §1, §2

T1 sequence (P09055 21-798): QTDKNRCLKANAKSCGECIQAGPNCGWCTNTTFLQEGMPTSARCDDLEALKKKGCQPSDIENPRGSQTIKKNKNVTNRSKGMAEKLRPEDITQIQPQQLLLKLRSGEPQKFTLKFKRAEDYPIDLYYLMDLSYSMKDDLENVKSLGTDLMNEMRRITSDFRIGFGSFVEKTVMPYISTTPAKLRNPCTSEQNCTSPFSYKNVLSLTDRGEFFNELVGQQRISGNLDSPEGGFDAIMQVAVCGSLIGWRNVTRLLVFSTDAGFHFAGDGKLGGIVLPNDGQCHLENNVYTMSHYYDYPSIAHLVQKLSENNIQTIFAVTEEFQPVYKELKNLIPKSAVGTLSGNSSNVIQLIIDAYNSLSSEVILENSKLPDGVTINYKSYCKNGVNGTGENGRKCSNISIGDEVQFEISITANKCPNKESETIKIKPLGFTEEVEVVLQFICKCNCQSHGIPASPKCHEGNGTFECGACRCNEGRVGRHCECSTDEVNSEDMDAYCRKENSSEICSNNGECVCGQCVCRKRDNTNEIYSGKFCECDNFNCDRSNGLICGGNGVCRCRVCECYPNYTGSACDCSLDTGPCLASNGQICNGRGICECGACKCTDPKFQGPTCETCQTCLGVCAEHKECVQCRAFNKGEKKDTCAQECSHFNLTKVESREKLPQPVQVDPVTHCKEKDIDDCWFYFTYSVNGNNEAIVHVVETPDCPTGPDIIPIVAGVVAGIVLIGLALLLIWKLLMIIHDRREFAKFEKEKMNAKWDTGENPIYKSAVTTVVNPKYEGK

irsin/adipsin (TMT ratio) [1]: 3.44
irisin/adipsin (TMT ratio) [2]: 1.11
irisin/adipsin (TMT ratio) [3]: 1.45
summed signal-to-noise value for TMT channel [4]: 60.6
summed signal-to-noise value for TMT channel [5]: 858
summed signal-to-noise value for TMT channel [6]: 215
B1: His-tag recombinant irisin (irisin (human/mouse) with a C-terminal 10 his tag, produced in HEK293 cells) (ligand)
chain: DSPSAPVNVTVRHLKANSAVVSWDVLEDEVVIGFAISQQKKDVRMLRFIQEVNTTTRSCALWDLEEDTEYIVHVQAISIQGQSPASEPVLFKTPREAEKMASKNKDEVTMKE
notes: Made in mammalian cells, glycosylated; Used in cell culture and cross-linking experiments; also called 10 His-tag irisin; his-tag irisin; not shown: C-terminal 10 his tag
